We go through two molecules from patent publication US20230212549A1, “COMPOUNDS COMPRISING A […] LIGAND AND USE THEREOF” (priority 2021, published 2023).

Bridge positions count the residues as written; N and C are the ends.

Assay [1] addresses T1, COX2(h) (human), P35354.
T1 chain: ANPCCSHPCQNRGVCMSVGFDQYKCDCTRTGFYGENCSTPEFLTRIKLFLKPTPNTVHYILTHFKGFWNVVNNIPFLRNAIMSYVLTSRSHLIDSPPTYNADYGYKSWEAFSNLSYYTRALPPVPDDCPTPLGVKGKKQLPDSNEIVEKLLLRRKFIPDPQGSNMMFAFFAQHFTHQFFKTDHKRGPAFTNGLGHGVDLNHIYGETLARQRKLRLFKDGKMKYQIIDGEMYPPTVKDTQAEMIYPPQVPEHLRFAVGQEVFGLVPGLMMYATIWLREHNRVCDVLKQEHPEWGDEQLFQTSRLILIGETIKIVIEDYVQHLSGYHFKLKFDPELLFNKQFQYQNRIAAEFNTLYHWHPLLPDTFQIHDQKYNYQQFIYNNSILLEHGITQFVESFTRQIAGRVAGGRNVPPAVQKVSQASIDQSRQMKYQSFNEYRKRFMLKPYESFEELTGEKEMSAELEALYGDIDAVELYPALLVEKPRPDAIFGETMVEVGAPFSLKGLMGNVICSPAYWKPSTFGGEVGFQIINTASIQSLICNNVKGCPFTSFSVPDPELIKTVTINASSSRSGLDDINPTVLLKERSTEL
Kind of assay: cell-based or functional assay.

Assay [2] deals with Cathepsin B, P07858. Kind of assay: cell-based or functional assay.
Assay [3] deals with Cathepsin S, P25774. Kind of assay: cell-based or functional assay.
Assay [4] deals with DPP8, Q6V1X1. Kind of assay: cell-based or functional assay.
In assay [5] the target is Matrix metalloprotease 9 (mutant Q279R), P14780. Briefly: cell-based or functional assay.
The target of assay [6] is PDE3A (h) (human), Q14432. Briefly: cell-based or functional assay.
In assay [7] the target is Ubiquitin carboxy-terminal hydrolase L1, P09936. Briefly: cell-based or functional assay.
Assay [8] deals with T2, Ubiquitin carboxyl-terminal hydrolase 5, P45974.
T2 chain: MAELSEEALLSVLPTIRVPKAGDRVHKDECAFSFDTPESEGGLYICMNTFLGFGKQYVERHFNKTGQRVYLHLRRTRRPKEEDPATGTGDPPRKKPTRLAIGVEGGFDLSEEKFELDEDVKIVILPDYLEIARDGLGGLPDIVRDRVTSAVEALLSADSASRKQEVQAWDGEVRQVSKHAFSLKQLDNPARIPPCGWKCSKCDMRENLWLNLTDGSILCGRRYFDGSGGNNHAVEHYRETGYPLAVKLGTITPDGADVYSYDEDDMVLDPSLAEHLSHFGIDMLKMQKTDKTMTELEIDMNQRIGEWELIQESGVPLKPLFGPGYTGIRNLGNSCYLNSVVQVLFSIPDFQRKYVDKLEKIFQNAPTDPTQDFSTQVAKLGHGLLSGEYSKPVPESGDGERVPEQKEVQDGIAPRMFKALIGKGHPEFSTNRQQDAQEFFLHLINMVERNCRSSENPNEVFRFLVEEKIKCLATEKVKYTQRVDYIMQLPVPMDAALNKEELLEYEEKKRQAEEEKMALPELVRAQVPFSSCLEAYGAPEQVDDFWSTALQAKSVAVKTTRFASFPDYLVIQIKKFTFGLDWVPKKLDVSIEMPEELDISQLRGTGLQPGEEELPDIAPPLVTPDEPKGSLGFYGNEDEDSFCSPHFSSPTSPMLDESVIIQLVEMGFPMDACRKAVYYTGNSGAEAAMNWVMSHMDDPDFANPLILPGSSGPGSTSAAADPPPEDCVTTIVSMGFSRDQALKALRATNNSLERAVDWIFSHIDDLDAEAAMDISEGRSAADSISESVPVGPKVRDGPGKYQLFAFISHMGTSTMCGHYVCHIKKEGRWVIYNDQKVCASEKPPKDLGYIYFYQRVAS
Kind of assay: cell-based or functional assay.

Assay [9] addresses H1 (h) (human), P35367. Kind of assay: radioligand displacement (antagonist radioligand), 10 µM. As to conditions: remark: other sources report otherwise.
Assay [10] addresses NMDA. Described as above.
In assay [11] the target is Na+ channel (site 2). The description is as above.
For assay [12], the target named is T3, alpha 2A (h) (human), P08913.
T3 chain: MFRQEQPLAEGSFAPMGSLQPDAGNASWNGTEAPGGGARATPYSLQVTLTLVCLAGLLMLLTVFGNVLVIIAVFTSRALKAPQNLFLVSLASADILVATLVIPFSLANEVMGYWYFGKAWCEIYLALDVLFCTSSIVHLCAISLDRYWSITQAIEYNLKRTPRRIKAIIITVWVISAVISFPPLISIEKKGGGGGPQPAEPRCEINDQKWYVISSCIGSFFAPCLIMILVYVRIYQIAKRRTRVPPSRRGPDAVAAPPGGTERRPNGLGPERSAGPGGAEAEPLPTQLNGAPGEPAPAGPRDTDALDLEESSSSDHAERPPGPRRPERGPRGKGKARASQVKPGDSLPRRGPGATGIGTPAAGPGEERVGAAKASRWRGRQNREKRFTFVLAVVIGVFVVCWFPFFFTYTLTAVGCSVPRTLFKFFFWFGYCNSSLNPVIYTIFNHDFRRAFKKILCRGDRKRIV
The description is as above. As to conditions: remark: other sources report otherwise.

Chain of Ubiquitin carboxy-terminal hydrolase L1, P09936 (P09936 whole entry): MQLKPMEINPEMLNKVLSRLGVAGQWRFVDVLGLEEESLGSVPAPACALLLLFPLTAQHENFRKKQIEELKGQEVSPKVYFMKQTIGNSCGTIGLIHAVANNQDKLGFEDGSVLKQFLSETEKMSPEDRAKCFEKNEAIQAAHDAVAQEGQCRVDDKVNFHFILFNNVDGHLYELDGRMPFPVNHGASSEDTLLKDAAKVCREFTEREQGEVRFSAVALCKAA
Chain of DPP8, Q6V1X1 (Q6V1X1 whole entry): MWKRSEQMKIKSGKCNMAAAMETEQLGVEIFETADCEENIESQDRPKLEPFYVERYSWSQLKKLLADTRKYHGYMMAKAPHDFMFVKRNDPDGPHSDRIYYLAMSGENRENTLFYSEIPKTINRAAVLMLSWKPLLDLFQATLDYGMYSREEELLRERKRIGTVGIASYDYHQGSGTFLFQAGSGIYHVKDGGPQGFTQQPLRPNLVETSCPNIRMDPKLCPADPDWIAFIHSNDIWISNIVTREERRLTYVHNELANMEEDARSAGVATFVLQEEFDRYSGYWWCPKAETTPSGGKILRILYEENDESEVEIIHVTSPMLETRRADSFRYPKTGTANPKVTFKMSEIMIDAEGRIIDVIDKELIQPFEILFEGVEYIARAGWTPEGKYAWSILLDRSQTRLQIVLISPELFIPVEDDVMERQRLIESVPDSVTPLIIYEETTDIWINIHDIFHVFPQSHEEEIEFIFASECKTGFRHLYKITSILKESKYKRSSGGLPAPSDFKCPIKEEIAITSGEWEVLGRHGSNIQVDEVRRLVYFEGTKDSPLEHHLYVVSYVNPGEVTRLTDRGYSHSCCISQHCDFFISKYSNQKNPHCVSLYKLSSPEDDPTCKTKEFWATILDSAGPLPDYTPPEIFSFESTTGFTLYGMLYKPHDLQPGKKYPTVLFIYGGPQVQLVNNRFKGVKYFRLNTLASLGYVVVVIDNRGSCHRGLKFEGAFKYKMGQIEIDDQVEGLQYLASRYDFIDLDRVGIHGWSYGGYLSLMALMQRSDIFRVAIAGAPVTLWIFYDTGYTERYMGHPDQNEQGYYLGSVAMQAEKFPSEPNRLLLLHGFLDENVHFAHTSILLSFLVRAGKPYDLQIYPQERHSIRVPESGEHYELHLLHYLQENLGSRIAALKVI
Chain of Matrix metalloprotease 9 (mutant Q279R), P14780 (P14780 107-707 Q279R): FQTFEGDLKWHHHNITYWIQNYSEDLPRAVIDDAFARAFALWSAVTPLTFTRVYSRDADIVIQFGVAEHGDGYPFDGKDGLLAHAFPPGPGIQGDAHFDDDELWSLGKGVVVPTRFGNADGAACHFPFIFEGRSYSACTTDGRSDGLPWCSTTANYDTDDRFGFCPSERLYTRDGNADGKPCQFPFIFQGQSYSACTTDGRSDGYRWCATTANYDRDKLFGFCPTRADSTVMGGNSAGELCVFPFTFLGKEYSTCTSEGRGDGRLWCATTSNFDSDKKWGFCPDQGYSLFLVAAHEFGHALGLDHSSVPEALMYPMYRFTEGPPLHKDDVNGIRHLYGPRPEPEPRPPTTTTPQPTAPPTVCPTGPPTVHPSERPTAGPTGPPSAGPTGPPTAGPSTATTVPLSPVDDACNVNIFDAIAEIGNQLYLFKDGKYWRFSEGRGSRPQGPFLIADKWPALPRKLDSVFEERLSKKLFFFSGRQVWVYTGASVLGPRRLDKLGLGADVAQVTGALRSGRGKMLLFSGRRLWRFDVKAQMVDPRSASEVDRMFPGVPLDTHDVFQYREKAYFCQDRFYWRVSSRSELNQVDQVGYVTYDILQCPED
Chain of Cathepsin S, P25774 (P25774 115-331 limits assumed): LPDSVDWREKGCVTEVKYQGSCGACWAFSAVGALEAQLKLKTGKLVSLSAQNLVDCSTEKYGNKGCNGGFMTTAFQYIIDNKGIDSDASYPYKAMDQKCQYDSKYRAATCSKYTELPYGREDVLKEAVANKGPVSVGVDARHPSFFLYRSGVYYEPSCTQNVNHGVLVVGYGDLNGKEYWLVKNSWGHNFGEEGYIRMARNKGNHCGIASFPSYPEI
Chain of PDE3A (h) (human), Q14432 (Q14432 669-1141 limits assumed): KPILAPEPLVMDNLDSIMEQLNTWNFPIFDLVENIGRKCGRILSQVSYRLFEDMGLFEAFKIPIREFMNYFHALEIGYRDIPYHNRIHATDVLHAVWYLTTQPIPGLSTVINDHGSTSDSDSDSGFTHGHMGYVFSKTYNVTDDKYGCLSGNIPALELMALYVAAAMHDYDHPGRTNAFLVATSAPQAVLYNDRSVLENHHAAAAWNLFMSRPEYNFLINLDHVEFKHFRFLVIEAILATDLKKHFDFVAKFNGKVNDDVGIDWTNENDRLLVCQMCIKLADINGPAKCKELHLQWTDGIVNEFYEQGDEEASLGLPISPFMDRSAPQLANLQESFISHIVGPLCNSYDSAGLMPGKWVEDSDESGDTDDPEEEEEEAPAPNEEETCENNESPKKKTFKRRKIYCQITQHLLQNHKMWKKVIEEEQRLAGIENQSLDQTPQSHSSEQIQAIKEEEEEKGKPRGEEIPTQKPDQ
Chain of H1 (h) (human), P35367 (P35367 whole entry): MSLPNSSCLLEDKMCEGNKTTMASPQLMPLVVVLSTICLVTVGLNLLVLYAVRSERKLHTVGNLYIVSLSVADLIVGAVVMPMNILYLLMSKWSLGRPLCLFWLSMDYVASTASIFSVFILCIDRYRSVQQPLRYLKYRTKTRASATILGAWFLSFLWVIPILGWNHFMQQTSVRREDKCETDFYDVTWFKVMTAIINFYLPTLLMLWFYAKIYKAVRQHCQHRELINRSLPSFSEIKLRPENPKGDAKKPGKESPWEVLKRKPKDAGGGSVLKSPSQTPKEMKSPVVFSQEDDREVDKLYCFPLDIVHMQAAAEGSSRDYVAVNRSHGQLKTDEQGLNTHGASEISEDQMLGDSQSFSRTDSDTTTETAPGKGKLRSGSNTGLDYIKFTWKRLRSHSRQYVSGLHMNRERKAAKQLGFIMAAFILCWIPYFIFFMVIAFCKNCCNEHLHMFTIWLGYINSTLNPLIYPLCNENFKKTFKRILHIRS

B1: Hex-[Cys(tMeBn(DOTA-PP))-Pro-Pro-Thr-Gln-Phe-Cys]-Asp-NH2 (peptide)
peptide: Hex-CPPTQFCD-NH2
modifications: bridge 1-7; not fully specified (bridges); printed as Hex-[Cys(tMeBn(DOTA-PP))-Pro-Pro-Thr-Gln-Phe-Cys]-Asp-NH2
For B1, the figures for the % inhibition of control enzyme activity, compound at 10 µM in [1] and in assay [6] were -14% and -3%, respectively. Moreover, the Percentage inhibition (%) at 1 µM in [2] was 26%; in [3], 3%; in assay [4] it was 1%; in assay [5], 3%; in assay [7], -2%; in assay [8], 3%. Also, the Percentage inhibition (%) at 10 µM came to 36% in [2]; 18% in [3]; 5% in assay [4]; 2% in assay [5]; 4% in [7]; 46% in [8]. Also, the % Inhibition of Specific Binding in assay [9] was 11%; in assay [10] it was 9%; in assay [11], -7%; in [12], -9%.

B2: Hex-[Cys(tMeBn(DOTA-AET))-Pro-Pro-Thr-Gln-Phe-Cys]-OH (peptide)
peptide: Hex-CPPTQFC-OH
modifications: bridge 1-7; not fully specified (bridges); printed as Hex-[Cys(tMeBn(DOTA-AET))-Pro-Pro-Thr-Gln-Phe-Cys]-OH
Consider B2, for which the % inhibition of control enzyme activity, compound at 10 µM is -22% in [1] and -37% in assay [6]. Besides, the Percentage inhibition (%) at 1 µM in [2] was 1%; in [3], -10%; in assay [4], 1%; in assay [5] it was 3%; in assay [7] it was -4%; in [8] it was -4%. Also, the Percentage inhibition (%) at 10 µM in assay [2] was 2%; in assay [3], -23%; in assay [4] it was 11%; in assay [5], 2%; in [7] it was 4%; in [8], -2%. Also, the % Inhibition of Specific Binding in assay [9] came to 4%; in assay [10], 1%; in [11], 14%; in [12], 2%.
